Reference: patent US7838288B2, “Modulators of odorant receptors” (Duke University, priority 2004, dated 2010)

Legend:
olfr62 = assay: CRE-luciferase reporter gene assay, olfr62; assay type: cell-based, mouse; settings: 293T cells expressing RTP1 variant
Method in brief: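 Receptor-transfected 293T cells carrying CRE-luciferase plus SV40-Renilla control, switched to CD293 medium 12 h post-transfection, then exposed to odorants for 4 h at 37 °C. Signal is dual-luciferase normalized activity, [Luc(N) − Luc(0)]/Renilla.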

MOR203-1 = assay: Living-cell staining of cell-surface MOR203-1; assay type: cell-based, mouse; settings: accessory protein co-transfected in 293T cells

OLFR62 activity as indicated by luciferase expression (olfr62): Increased enhancement
B1: RTP1-A1: RTP1 variant from deleting portions of RTP1-A; murine SEQ ID NO: 46, human SEQ ID NO: 47 (protein, listed as Mus musculus)
chain: MCKSVTTGEWKKVFYEKMEEVKPADSWDFIIDPNLKHNVLAPGWKQYLELHASGRFHCSWCWHTWQSPHVVILFHMYLDKAQRAGSVRMRVFKQLCYECGTARLDESSMLEENIESLVDNLITSLREQCYGERGGHYRIHVASRQDNRRHRGEFCEACQEGIVHWKPSEKLLEEEATTYTFSRAPSPTKPQAETGSGCNFCSIPWCLFWATVLMLIIYLQFSFRTSV
cell surface expression of MOR203-1 (MOR203-1): Increased cell-surface staining
